The text below walks through data of patent publication US20240368249A1 (INTERVET, published 2024).

For orientation: EC50 means the concentration giving half of the maximal effect. A high value points to lower potency in that assay. In general, EC50 (read off the curve) refers to the concentration at which the effect is half-maximal. Low readings indicate an effect from little substance, high ones a need for much substance.

Test [1] addresses canine IL-31Rα (canine). Nature of the test: ELISA, plate coated with cIL-31Rα at 1 µg/mL, detection with HRP anti-dog IgG Fc, OD450/540.
Test [2] deals with canine IL-31Rα (canine). Nature of the test: ELISA, plate coated with cIL-31Rα at 1 µg/mL, detection with HRP anti-dog IgG Fc, OD450/540nm. (In general: ELISA stands for enzyme-linked immunosorbent assay.)
Test [3] addresses T1, canine IL-13 (canine, UniProt Q9N0W9 19-131, limits assumed, biotin-labeled in the OCTET assay).
T1 construct: also called cIL-13; canine Interleukin-13
T1 sequence (looked up): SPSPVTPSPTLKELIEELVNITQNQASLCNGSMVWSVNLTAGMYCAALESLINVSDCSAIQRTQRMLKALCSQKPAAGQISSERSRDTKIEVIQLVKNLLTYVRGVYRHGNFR
Nature of the test: BLI (OCTET HTX), biotin-cIL-13 on SA biosensors. Here is the method:
The binding constants for the cFc fusion proteins provided in Tables 3 and 4 below, were determined using OCTET® HTX. All kinetics measurements were performed by OCTET® HTX using SA® biosensors and DATA ACQUISITION® 12.0 software. 10 μg/mL of biotin-labeled antigen, either canine IL-4 (cIL-4) or canine IL-13 (cIL-13) were loaded onto the SA® biosensors for 120 seconds. Next, the biosensors were placed into 1×pH 7.0 TBS/Casein buffer for 60 seconds for the blocking phase. For the association phase, antigen loaded biosensors were placed into 2-fold serial dilutions from 1 μM down to 15.6 nM of the wild-type, the bispecific, or the FcRn-mutant receptor Fc-fusions that recognized the cIL-4 or cIL-13 antigen in 1×pH 7.0 TBS/Casein buffer for 30 seconds. The last well was buffer alone and that sensor was used for reference sensor subtraction. Finally, the biosensors were placed into 1×pH 7.0 TBS/Casein buffer for 120 seconds for the dissociation phase. The results were then analyzed using Data Analysis 12.0 software and the curves were fitted using a 1:1 binding model.

B1: Caninized 44E2 H5k1 (antibody, V domains shown)
VH: ELTLQESGPGLVKPSQTLSLTCTVSGFSLTSNGVSWIRQRPGRGLEWMGAISSGGSTYYNSVLKSRISITADTAKNQFSLQLSSMTTEDTAVYYCARRLSGYNYVPFAYWGQGTLVTVSS
VL: EIVMTQSPASLSLSQEEKVTITCKASQNIYKHLAWYQQKPGQAPKLLIYNANSLQTGVPSRFSGSGSGTDFSFTISSLEPEDVAVYYCQQYYSGDTFGAGTKVELKR
In the case of B1, the 50% effective concentration (EC50) in test [1] is 1.35 ng/mL.

B2: Caninized 44E2 H5k2 (antibody, V domains shown)
VH: ELTLQESGPGLVKPSQTLSLTCTVSGFSLTSNGVSWIRQRPGRGLEWMGAISSGGSTYYNSVLKSRISITADTAKNQFSLQLSSMTTEDTAVYYCARRLSGYNYVPFAYWGQGTLVTVSS
VL: EIVMTQSPASLSLSQEEKVTITCKASQNIYKHLAWYQQKPGQAPKLLIYNANSLQTGIPSRFSGSGSGTDFSFTISSLEPEDVAVYFCQQYYSGDTFGAGTKVELKR
The molecule B2 returned an EC50 in test [1] of 3.97 ng/mL.

B3: Chimeric rat/canine 28F12 (antibody, V domains shown)
VH: EVQLVESDGGLAQPGRSLKLSCAASGFTFSDYYMAWVRQAPTKGLEWVATISYDGSSTYYRDSVRGRFTISRDNAKSTLYLQMDSLRSEDTATYYCARGPLTDWAPNWFAYWGQGTLVTVSS
VL: DIQMTQSPASLSASLGETVTIQCQTSEDIYSGLAWYQQKPGKSPQFLIYGASRLEDGVPSRFSGSGSGTQYSLKISSMQTEDEGVYFCQQGLKYPNTFGAGTKLELKR
Regarding B3, in test [1], the EC50 came to 1.66 ng/mL and the EC50 (read off the curve) came out at 1 ng/mL.

B4: Caninized 10A12 H1L5 (antibody, V domains shown)
VH: EVQLVESGGDLVKPGGSLRLSCVASGFTFSNYYMAWVRQAPGKGLQWVASISTGGGNTYYRDSVKGRFTISRDNAKNTLYLQMNSLRAEDTAMYYCAKHGTLYFDYWGQGTLVTVSS
VL: QPVLTQPPSLSASLGTTARLTCERSSGDIGDSYVSWYQQKPGSPPRDLLYVDDQRPSGVSKSFSGSKDTSANAGLLLISGLQPEDEADYYCQSYDSNIDGPVFGGGTHLTVLG
B4: in test [2], the EC50 worked out at 13.5 ng/mL.

B5: Caninized 10A12 H2L6 (antibody, V domains shown)
VH: EVQLVESGGDLVKPGGSLRLSCAASGFTFSNYYMAWVRQAPGKGLQWVASISTGGGNTYYRDSVKGRFTISRDNAKNTLYLQMNSLRAEDTAMYYCARHGTLYFDYWGQGTLVTVSS
VL: QPVLTQPPSLSASLGTTARLTCERSSGDIGDSYVSWYQQKPGSPPRDVIYVDDQRPSEVSKSFSGSKDTSANAGLLLISGLQPEDEADYFCQSYDSNIDGPVFGGGTHLTVLG
Turning to B5, the half-maximal effective concentration (EC50) in test [2] was 0.34 ng/mL.

B6: Caninized 28F12 H1k3 (antibody, V domains shown)
VH: EVQLVESGGDLVKPGGSLRLSCVASGFTFSDYYMAWVRQAPGKGLQWVATISYDGSSTYYRDSVRGRFTISRDNAKNTLYLQMNSLRAEDTAMYYCAKGPLTDWAPNWFAYWGQGTLVTVSS
VL: DIVMTQSPASLSLSQEEKVTITCQTSEDIYSGLAWYQQKPGQAPKLLIYGASRLEDGVPSRFSGSGSGTDFSFTISSLEPEDVAVYFCQQGLKYPNTFGAGTKVELKR
Regarding B6, the EC50 in test [1] was 1.74 ng/mL.

B7: Caninized 28F12 H2k3 (antibody, V domains shown)
VH: EVQLVESGGDLVKPGGSLRLSCAASGFTFSDYYMAWVRQAPGKGLQWVATISYDGSSTYYRDSVRGRFTISRDNAKNTLYLQMNSLRAEDTAMYYCARGPLTDWAPNWFAYWGQGTLVTVSS
VL: DIVMTQSPASLSLSQEEKVTITCQTSEDIYSGLAWYQQKPGQAPKLLIYGASRLEDGVPSRFSGSGSGTDFSFTISSLEPEDVAVYFCQQGLKYPNTFGAGTKVELKR
With B7, the EC50 in test [1] amounted to 1.74 ng/mL.

B8: Caninized 28F12 H2k2 (antibody, V domains shown)
VH: EVQLVESGGDLVKPGGSLRLSCAASGFTFSDYYMAWVRQAPGKGLQWVATISYDGSSTYYRDSVRGRFTISRDNAKNTLYLQMNSLRAEDTAMYYCARGPLTDWAPNWFAYWGQGTLVTVSS
VL: EIVMTQSPASLSLSQEEKVTITCQTSEDIYSGLAWYQQKPGQAPKLLIYGASRLEDGVPSRFSGSGSGTDFSFTISSLEPEDVAVYYCQQGLKYPNTFGAGTKVELKR
B8 had an EC50 in test [1] of 1.74 ng/mL.

B9: Chimeric rat/canine 10A12 (antibody, V domains shown)
VH: EVQLVESGGGLVKPGRSMKLSCAASGFTFSNYYMAWVRQAPTKGLEWVASISTGGGNTYYRDSVKGRFTISRDNAKRTLYLQMDSLRSEDTATYYCGRHGTLYFDYWGQGVMVTVSS
VL: QFTLTQPKSVSGSLRSTITIPCERSSGDIGDSYVSWYQQHLGRPPINVIYVDDQRPSEVSDRFSGSIDSSSNSASLTITDLQMDDEADYFCQSYDSNIDGPVFGGGTKLTVLG
Molecule B9 yielded an EC50 in test [2] of 0.518 ng/mL.

B10: Chimeric rat/canine 44E2 (antibody, V domains shown)
VH: QVQLKESGPGLVQPSQTLSLTCTVSGFSLTSNGVSWVRQPPGKGLEWIAAISSGGSTYYNSVLKSRLSISRDTSKSQVFLKMNSLQTEDTAIYFCTRRLSGYNYVPFAYWGQGTLVTVSS
VL: DIQMTQSPSLLSASVGDRVTLNCKASQNIYKHLAWCQQKLGEPPNLLISNANSLQTGIPSRFSGSGSGTDFTLTISSLQPEDVATYFCQQYYSGDTFGAGTKLELKR
With B10, in test [1], the EC50 was found to be 1.37 ng/mL.

B11: cIL-13Rα1-cIgGB-Fc-YTE CH2 Numbering (L18Y/A20T/T22E) (Fc fusion)
chain: GGVAAPTETQPPVTNLSVSVENLCTVIWTWDPPEGASPNCTLRYFSHFDNKQDKKIAPETHRSKEVPLNERICLQVGSQCSTNESDNPSILVEKCTPPPEGDPESAVTELQCVWHNLSYMKCTWLPGRNTSPDTNYTLYYWHSSLGKILQCEDIYREGQHIGCSFALTNLKDSSFEQHSVQIVVKDNAGKIRPSFNIVPLTSHVKPDPPHIKRLFFQNGNLYVQWKNPQNFYSRCLSYQVEVNNSQTETNDIFYVEEAKCQNSEFEGNLEGTICFMVPGVLPDTLNTVRIRVRTNKLCYEDDKLWSNWSQAMSIGENTDPTPKRENGRVPRPPDCPKCPAPEMLGGPSVFIFPPKPKDTLYITREPEVTCVVVDLDPEDPEVQISWFVDGKQMQTAKTQPREEQFNGTYRVVSVLPIGHQDWLKGKQFTCKVNNKALPSPIERTISKARGQAHQPSVYVLPPSREELSKNTVSLTCLIKDFFPPDIDVEWQSNGQQEPESKYRTTPPQLDEDGSYFLYSKLSVDKSRWQRGDTFICAVMHEALHNHYTQESLSHSPGK
notes: Homodimer; also called cIL-13Rα1-cFc-YTE
For B11, the “fold decrease in affinity against the unmodified cIL-13Rα1-cFc” value in test [3] was around 4 fold decrease.

B12: cIL-13Rα2-cIgGB-Fc-YD CH2 Numbering (L18Y/T22D) (Fc fusion)
chain: SMLSNAEIKVNPPQDFEIVDPGYLGYLSLQWQPPLFPDNFKECTIEYELKYRNIDSENWKTIITKNLHYKDGFDLNKGIEAKINTLLPAQCTNGSEVRSSWAETTYWTSPQGNRETKIQDMDCVYYNWQYLVCSWKPGMGVHFDTNYQLFYWYEGLDHSAECTDYIKVNGKNMGCRFPYLESSDYKDFYICVNGSSESQPIRPSYFIFQLQNIVKPMPPDYLSLTVKNSEEINLKWNMPKGPIPAKCFIYEIEFTEDGTTWVTTTVENEIQITRTSNESQKLCFLVRSKVNIYCSDDGIWSEWSDEQCWKGDIWKETPKRENGRVPRPPDCPKCPAPEMLGGPSVFIFPPKPKDTLYIARDPEVTCVVVDLDPEDPEVQISWFVDGKQMQTAKTQPREEQFNGTYRVVSVLPIGHQDWLKGKQFTCKVNNKALPSPIERTISKARGQAHQPSVYVLPPSREELSKNTVSLTCLIKDFFPPDIDVEWQSNGQQEPESKYRTTPPQLDEDGSYFLYSKLSVDKSRWQRGDTFICAVMHEALHNHYTQESLSHSPGK
notes: Homodimer; also called cIL-13Rα2-cFc-YD
Consider B12, for which, in test [3], the “factor of decrease of KD against the unmodified cIL-13Rα2-cFc” value was around 2 fold lower KD.

B13: cIL-13Rα2-cIgGB-Fc-YTE CH2 Numbering (L18Y/A20T/T22E) (Fc fusion)
chain: SMLSNAEIKVNPPQDFEIVDPGYLGYLSLQWQPPLFPDNFKECTIEYELKYRNIDSENWKTIITKNLHYKDGFDLNKGIEAKINTLLPAQCTNGSEVRSSWAETTYWTSPQGNRETKIQDMDCVYYNWQYLVCSWKPGMGVHFDTNYQLFYWYEGLDHSAECTDYIKVNGKNMGCRFPYLESSDYKDFYICVNGSSESQPIRPSYFIFQLQNIVKPMPPDYLSLTVKNSEEINLKWNMPKGPIPAKCFIYEIEFTEDGTTWVTTTVENEIQITRTSNESQKLCFLVRSKVNIYCSDDGIWSEWSDEQCWKGDIWKETPKRENGRVPRPPDCPKCPAPEMLGGPSVFIFPPKPKDTLYITREPEVTCVVVDLDPEDPEVQISWFVDGKQMQTAKTQPREEQFNGTYRVVSVLPIGHQDWLKGKQFTCKVNNKALPSPIERTISKARGQAHQPSVYVLPPSREELSKNTVSLTCLIKDFFPPDIDVEWQSNGQQEPESKYRTTPPQLDEDGSYFLYSKLSVDKSRWQRGDTFICAVMHEALHNHYTQESLSHSPGK
notes: Homodimer; also called cIL-13Rα2-cFc-YTE
For the molecule B13, the “factor of decrease of KD against the unmodified cIL-13Rα2-cFc” value in test [3] was around 2 fold lower KD.
